Reference: patent publication US20130005646A1 (Novo Nordisk, published 2013)
Starred links: 1 amine or outer side, 2 acyl side, 3 side chain; linkers in the order of their positions; H or OH if unused. Positions of bridges follow the written chain, without caps; N, C: chain ends. *: point of attachment. C20 diacid = O=C(O)CCCCCCCCCCCCCCCCCCC(=O)*; C18 diacid = O=C(O)CCCCCCCCCCCCCCCCC(=O)*; γGlu = O=C(O)[C@H](CCC(=O)[*:2])N[*:1]

B1: N-alpha-[(S)-4-Carboxy-4-(19-carboxynonadecanoylamino)butyryl]-His-[Glu14,Arg17,His35]-pramlintide (peptide)
peptide: {C20 diacid-γGlu}-HKCNTATCATQRLAEFLRHSSNNFGPILPPTNVGSHTY-NH2
modifications: disulfide 3-8
SMILES: CC[C@H](C)[C@H](NC(=O)[C@@H]1CCCN1C(=O)CNC(=O)[C@H](Cc1ccccc1)NC(=O)[C@H](CC(N)=O)NC(=O)[C@H](CC(N)=O)NC(=O)[C@H](CO)NC(=O)[C@H](CO)NC(=O)[C@H](Cc1c[nH]cn1)NC(=O)[C@H](CCCNC(=N)N)NC(=O)[C@H](CC(C)C)NC(=O)[C@H](Cc1ccccc1)NC(=O)[C@H](CCC(=O)O)NC(=O)[C@H](C)NC(=O)[C@H](CC(C)C)NC(=O)[C@H](CCCNC(=N)N)NC(=O)[C@H](CCC(N)=O)NC(=O)[C@@H](NC(=O)[C@H](C)NC(=O)[C@@H]1CSSC[C@H](NC(=O)[C@H](CCCCN)NC(=O)[C@H](Cc2c[nH]cn2)NC(=O)CC[C@H](NC(=O)CCCCCCCCCCCCCCCCCCC(=O)O)C(=O)O)C(=O)N[C@@H](CC(N)=O)C(=O)N[C@@H]([C@@H](C)O)C(=O)N[C@@H](C)C(=O)N[C@@H]([C@@H](C)O)C(=O)N1)[C@@H](C)O)C(=O)N[C@@H](CC(C)C)C(=O)N1CCC[C@H]1C(=O)N1CCC[C@H]1C(=O)N[C@H](C(=O)N[C@@H](CC(N)=O)C(=O)N[C@H](C(=O)NCC(=O)N[C@@H](CO)C(=O)N[C@@H](Cc1c[nH]cn1)C(=O)N[C@H](C(=O)N[C@@H](Cc1ccc(O)cc1)C(N)=O)[C@@H](C)O)C(C)C)[C@@H](C)O
B2: N-alpha-[(S)-4-Carboxy-4-(17-carboxyheptadecanoylamino)butyryl]-His-[Glu14,His17,His35]-pramlintide (peptide)
peptide: {C18 diacid-γGlu}-HKCNTATCATQRLAEFLHHSSNNFGPILPPTNVGSHTY-NH2
modifications: disulfide 3-8
SMILES: CC[C@H](C)[C@H](NC(=O)[C@@H]1CCCN1C(=O)CNC(=O)[C@H](Cc1ccccc1)NC(=O)[C@H](CC(N)=O)NC(=O)[C@H](CC(N)=O)NC(=O)[C@H](CO)NC(=O)[C@H](CO)NC(=O)[C@H](Cc1c[nH]cn1)NC(=O)[C@H](Cc1c[nH]cn1)NC(=O)[C@H](CC(C)C)NC(=O)[C@H](Cc1ccccc1)NC(=O)[C@H](CCC(=O)O)NC(=O)[C@H](C)NC(=O)[C@H](CC(C)C)NC(=O)[C@H](CCCNC(=N)N)NC(=O)[C@H](CCC(N)=O)NC(=O)[C@@H](NC(=O)[C@H](C)NC(=O)[C@@H]1CSSC[C@H](NC(=O)[C@H](CCCCN)NC(=O)[C@H](Cc2c[nH]cn2)NC(=O)CC[C@H](NC(=O)CCCCCCCCCCCCCCCCC(=O)O)C(=O)O)C(=O)N[C@@H](CC(N)=O)C(=O)N[C@@H]([C@@H](C)O)C(=O)N[C@@H](C)C(=O)N[C@@H]([C@@H](C)O)C(=O)N1)[C@@H](C)O)C(=O)N[C@@H](CC(C)C)C(=O)N1CCC[C@H]1C(=O)N1CCC[C@H]1C(=O)N[C@H](C(=O)N[C@@H](CC(N)=O)C(=O)N[C@H](C(=O)NCC(=O)N[C@@H](CO)C(=O)N[C@@H](Cc1c[nH]cn1)C(=O)N[C@H](C(=O)N[C@@H](Cc1ccc(O)cc1)C(N)=O)[C@@H](C)O)C(C)C)[C@@H](C)O
B3: N-alpha-[(S)-4-Carboxy-4-(19-carboxynonadecanoylamino)butyryl]-His-His-[Glu14,Arg17,His35]-pramlintide (peptide)
peptide: {C20 diacid-γGlu}-HHKCNTATCATQRLAEFLRHSSNNFGPILPPTNVGSHTY-NH2
modifications: disulfide 4-9
SMILES: CC[C@H](C)[C@H](NC(=O)[C@@H]1CCCN1C(=O)CNC(=O)[C@H](Cc1ccccc1)NC(=O)[C@H](CC(N)=O)NC(=O)[C@H](CC(N)=O)NC(=O)[C@H](CO)NC(=O)[C@H](CO)NC(=O)[C@H](Cc1c[nH]cn1)NC(=O)[C@H](CCCNC(=N)N)NC(=O)[C@H](CC(C)C)NC(=O)[C@H](Cc1ccccc1)NC(=O)[C@H](CCC(=O)O)NC(=O)[C@H](C)NC(=O)[C@H](CC(C)C)NC(=O)[C@H](CCCNC(=N)N)NC(=O)[C@H](CCC(N)=O)NC(=O)[C@@H](NC(=O)[C@H](C)NC(=O)[C@@H]1CSSC[C@H](NC(=O)[C@H](CCCCN)NC(=O)[C@H](Cc2c[nH]cn2)NC(=O)[C@H](Cc2c[nH]cn2)NC(=O)CC[C@H](NC(=O)CCCCCCCCCCCCCCCCCCC(=O)O)C(=O)O)C(=O)N[C@@H](CC(N)=O)C(=O)N[C@@H]([C@@H](C)O)C(=O)N[C@@H](C)C(=O)N[C@@H]([C@@H](C)O)C(=O)N1)[C@@H](C)O)C(=O)N[C@@H](CC(C)C)C(=O)N1CCC[C@H]1C(=O)N1CCC[C@H]1C(=O)N[C@H](C(=O)N[C@@H](CC(N)=O)C(=O)N[C@H](C(=O)NCC(=O)N[C@@H](CO)C(=O)N[C@@H](Cc1c[nH]cn1)C(=O)N[C@H](C(=O)N[C@@H](Cc1ccc(O)cc1)C(N)=O)[C@@H](C)O)C(C)C)[C@@H](C)O
B4: N-alpha-[(S)-4-Carboxy-4-(19-carboxynonadecanoylamino)butyryl]-[Glu14,His17,Ala25,Pro26,Ser28,Ser29,His35]-pramlintide (peptide)
peptide: {C20 diacid-γGlu}-KCNTATCATQRLAEFLHHSSNNFGAPLSSTNVGSHTY-NH2
modifications: disulfide 2-7
SMILES: CC(C)C[C@H](NC(=O)[C@H](CCCNC(=N)N)NC(=O)[C@H](CCC(N)=O)NC(=O)[C@@H](NC(=O)[C@H](C)NC(=O)[C@@H]1CSSC[C@H](NC(=O)[C@H](CCCCN)NC(=O)CC[C@H](NC(=O)CCCCCCCCCCCCCCCCCCC(=O)O)C(=O)O)C(=O)N[C@@H](CC(N)=O)C(=O)N[C@@H]([C@@H](C)O)C(=O)N[C@@H](C)C(=O)N[C@@H]([C@@H](C)O)C(=O)N1)[C@@H](C)O)C(=O)N[C@@H](C)C(=O)N[C@@H](CCC(=O)O)C(=O)N[C@@H](Cc1ccccc1)C(=O)N[C@@H](CC(C)C)C(=O)N[C@@H](Cc1c[nH]cn1)C(=O)N[C@@H](Cc1c[nH]cn1)C(=O)N[C@@H](CO)C(=O)N[C@@H](CO)C(=O)N[C@@H](CC(N)=O)C(=O)N[C@@H](CC(N)=O)C(=O)N[C@@H](Cc1ccccc1)C(=O)NCC(=O)N[C@@H](C)C(=O)N1CCC[C@H]1C(=O)N[C@@H](CC(C)C)C(=O)N[C@@H](CO)C(=O)N[C@@H](CO)C(=O)N[C@H](C(=O)N[C@@H](CC(N)=O)C(=O)N[C@H](C(=O)NCC(=O)N[C@@H](CO)C(=O)N[C@@H](Cc1c[nH]cn1)C(=O)N[C@H](C(=O)N[C@@H](Cc1ccc(O)cc1)C(N)=O)[C@@H](C)O)C(C)C)[C@@H](C)O
B5: N-alpha-[(S)-4-Carboxy-4-(19-carboxynonadecanoylamino)butyryl]-His-His-[Glu14,His17,His35]-pramlintide (peptide)
peptide: {C20 diacid-γGlu}-HHKCNTATCATQRLAEFLHHSSNNFGPILPPTNVGSHTY-NH2
modifications: disulfide 4-9
SMILES: CC[C@H](C)[C@H](NC(=O)[C@@H]1CCCN1C(=O)CNC(=O)[C@H](Cc1ccccc1)NC(=O)[C@H](CC(N)=O)NC(=O)[C@H](CC(N)=O)NC(=O)[C@H](CO)NC(=O)[C@H](CO)NC(=O)[C@H](Cc1c[nH]cn1)NC(=O)[C@H](Cc1c[nH]cn1)NC(=O)[C@H](CC(C)C)NC(=O)[C@H](Cc1ccccc1)NC(=O)[C@H](CCC(=O)O)NC(=O)[C@H](C)NC(=O)[C@H](CC(C)C)NC(=O)[C@H](CCCNC(=N)N)NC(=O)[C@H](CCC(N)=O)NC(=O)[C@@H](NC(=O)[C@H](C)NC(=O)[C@@H]1CSSC[C@H](NC(=O)[C@H](CCCCN)NC(=O)[C@H](Cc2c[nH]cn2)NC(=O)[C@H](Cc2c[nH]cn2)NC(=O)CC[C@H](NC(=O)CCCCCCCCCCCCCCCCCCC(=O)O)C(=O)O)C(=O)N[C@@H](CC(N)=O)C(=O)N[C@@H]([C@@H](C)O)C(=O)N[C@@H](C)C(=O)N[C@@H]([C@@H](C)O)C(=O)N1)[C@@H](C)O)C(=O)N[C@@H](CC(C)C)C(=O)N1CCC[C@H]1C(=O)N1CCC[C@H]1C(=O)N[C@H](C(=O)N[C@@H](CC(N)=O)C(=O)N[C@H](C(=O)NCC(=O)N[C@@H](CO)C(=O)N[C@@H](Cc1c[nH]cn1)C(=O)N[C@H](C(=O)N[C@@H](Cc1ccc(O)cc1)C(N)=O)[C@@H](C)O)C(C)C)[C@@H](C)O
B6: N-alpha-[(S)-4-Carboxy-4-(19-carboxynonadecanoylamino)butyryl]-His-His-[His1,Glu14,His17,Ser21,Glu35]-pramlintide (peptide)
peptide: {C20 diacid-γGlu}-HHHCNTATCATQRLAEFLHHSSSNFGPILPPTNVGSETY-NH2
modifications: disulfide 4-9
SMILES: CC[C@H](C)[C@H](NC(=O)[C@@H]1CCCN1C(=O)CNC(=O)[C@H](Cc1ccccc1)NC(=O)[C@H](CC(N)=O)NC(=O)[C@H](CO)NC(=O)[C@H](CO)NC(=O)[C@H](CO)NC(=O)[C@H](Cc1c[nH]cn1)NC(=O)[C@H](Cc1c[nH]cn1)NC(=O)[C@H](CC(C)C)NC(=O)[C@H](Cc1ccccc1)NC(=O)[C@H](CCC(=O)O)NC(=O)[C@H](C)NC(=O)[C@H](CC(C)C)NC(=O)[C@H](CCCNC(=N)N)NC(=O)[C@H](CCC(N)=O)NC(=O)[C@@H](NC(=O)[C@H](C)NC(=O)[C@@H]1CSSC[C@H](NC(=O)[C@H](Cc2c[nH]cn2)NC(=O)[C@H](Cc2c[nH]cn2)NC(=O)[C@H](Cc2c[nH]cn2)NC(=O)CC[C@H](NC(=O)CCCCCCCCCCCCCCCCCCC(=O)O)C(=O)O)C(=O)N[C@@H](CC(N)=O)C(=O)N[C@@H]([C@@H](C)O)C(=O)N[C@@H](C)C(=O)N[C@@H]([C@@H](C)O)C(=O)N1)[C@@H](C)O)C(=O)N[C@@H](CC(C)C)C(=O)N1CCC[C@H]1C(=O)N1CCC[C@H]1C(=O)N[C@H](C(=O)N[C@@H](CC(N)=O)C(=O)N[C@H](C(=O)NCC(=O)N[C@@H](CO)C(=O)N[C@@H](CCC(=O)O)C(=O)N[C@H](C(=O)N[C@@H](Cc1ccc(O)cc1)C(N)=O)[C@@H](C)O)C(C)C)[C@@H](C)O

Experiments:
[1] = biological target: T1, human amylin 3(a) receptor (human calcitonin receptor + RAMP-3) (human, UniProt P30988 25-474; O60896 24-148); assay: cell-based or functional assay
T1 sequence (looked up) 1: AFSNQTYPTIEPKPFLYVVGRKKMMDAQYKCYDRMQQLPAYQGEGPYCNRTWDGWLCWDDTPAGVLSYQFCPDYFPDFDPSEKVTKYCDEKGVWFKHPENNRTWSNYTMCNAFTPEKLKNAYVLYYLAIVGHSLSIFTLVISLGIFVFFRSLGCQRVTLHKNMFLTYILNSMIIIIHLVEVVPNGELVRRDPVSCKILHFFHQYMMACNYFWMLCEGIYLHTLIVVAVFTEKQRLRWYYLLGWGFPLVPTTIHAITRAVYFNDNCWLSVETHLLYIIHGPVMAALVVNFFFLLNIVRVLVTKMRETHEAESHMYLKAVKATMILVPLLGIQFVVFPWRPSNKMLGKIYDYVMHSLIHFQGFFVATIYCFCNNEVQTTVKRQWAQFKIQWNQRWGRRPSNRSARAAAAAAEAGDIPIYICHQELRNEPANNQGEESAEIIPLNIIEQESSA
T1 sequence (looked up) 2: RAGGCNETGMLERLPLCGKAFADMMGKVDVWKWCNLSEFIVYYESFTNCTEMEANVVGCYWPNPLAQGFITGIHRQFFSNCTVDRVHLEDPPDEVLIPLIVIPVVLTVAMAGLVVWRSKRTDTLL

[2] = biological target: T2, human calcitonin (a) receptor (human, UniProt P30988 25-474); assay: cell-based or functional assay
T2 sequence (looked up): T1 sequence (looked up) 1

Binder | Amylin receptor human EC50 [1] [nM] | CTa receptor human EC50 [2] [nM]
B1 | 0.0935 | 0.43
B2 | 0.0585 | 0.099
B3 | 0.101 | 0.615
B4 | 0.153 | 0.0945
B5 | 0.0965 | 0.115
B6 | 0.558 | 0.632
